The results in this text go back to patent publication US20040170622A1, “Methods and compositions for modulating XBP-1 activity” (President and Fellows of Harvard College, priority 2002, published 2004).

In one data set the test system is UPR target genes. The data set is described as follows: Genes induced by XBP-1s in MEF-tet-off-XBP-1s cells (gene array, Northern blot). It counts as cell-based. The note with it: doxycycline removed for three days. Here is the method: XBP-1s expression was induced by culturing the cells for three days in doxycycline free media or by treating with Tm for the indicated time. […] Total RNA was also prepared to measure the expression level of BiP, CHOP, ERdj4, p58^ipk and ATF6α mRNA. (B) Additional XBP-1 dependent target genes identified in gene profiling experiments (Table 2) confirmed by Northern analysis in both XBP-1s MEF-tet-off and XBP-1^−/− MEFs. Ethidium bromide staining of the gels before blotting are shown at the bottom.
293T and MEF cells derived from wild type and XBP-1^−/− embryos were cultured in DMEM supplemented with 10% fetal calf serum (Hyclone Laboratories). MEF-tet-off cells (Clontech) were maintained in the same media with the addition of 100 μg/ml G418 and 1 μg/ml doxycycline. XBP-1s inducible cells were obtained by transfecting MEF-tet-off cells with the TREhyg-XBP-1s plasmid and then selecting in the presence of 400 μg/ml hygromycin B. Several clones were tested for doxycycline-dependent XBP-1s expression, and one was selected for further experiments. MEF-dn-XBP cells were generated by transfecting MEF-tet-off cells with the TREhyg-dn-XBP plasmid. […] ATF6α and β knockdown MEF cells were generated by cotransfecting wild type MEF cells with U6-iATF6α and β and cmv-puromycin or transducing cells with retroviruses containing each RNAi vector.
Total RNA was isolated from MEF cells with TRIZOL reagent (Invitrogen, Carlsbad, Calif.). cDNA synthesis, hybridization and laser scanning of the array were carried out at the Gene Array Technology Center (Brigham and Women's Hospital, Boston, Mass.) with MG-U74A GeneChips which had 6,000 functionally characterized sequences and 6,000 ESTs from the UniGene database (Affymetrix, Santa Clara, Calif.) as recommended by Affymetrix. Data analysis was performed using Affymetrix GeneChip 3.1 software under default parameter setting.
To examine whether XBP-1 itself is sufficient to induce these UPR target genes, the tet-off system was used to establish a cell line in which the spliced form of XBP-1, XBP-1s, is placed downstream of a tetracycline dependent promoter. XBP-1s was induced by removing doxycycline in the culture medium for three days. […] To identify genes that were induced by XBP-1s, total RNAs were prepared from MEF-tet-off-XBP-1s cells cultured in the presence or absence of doxycycline and gene array analysis performed (Table 1). […] In addition, ˜23% of the total pool of analyzed UPR target genes were induced by XBP-1s, although the fold induction tended to be lower than upon Tm treatment. These UPR genes included Herp, BiP, Aremt, AW124049 EST and interferon beta. […] The expression of BiP, CHOP, ERdj4 and p58^ipk was confirmed by Northern blot analysis (FIG. 17A).

The next data set has as its system XBP-1. As to the kind of experiment: XBP-1 dependent gene expression in dn-XBP / iXBP transduced J558 cells (Northern, Western blot). The class given is cell-based. An excerpt:
(A) Synergistic effect of Tm and MG-132 on apoptosis. Annexin V positive cells were counted after treating J558 cells for 18 hrs with suboptimal concentrations of Tm and MG-132 as indicated. (B) J558-iXBP cells were generated by retroviral transduction of J558 cells with the U6 promoter based XBP-1 RNAi vector. (C) XBP-1 dependent gene expression in J558 cells that express control GFP, dn-XBP or iXBP-1 treated with Tm. Generation of dn-XBP-1 J558 cells by infection with a retrovirus containing dn-XBP cDNA inserted into the GFP-RV vector (N. N. lwakoshi et al., Nature Immunology 4, 321-329 (2003)). ERdj4, p58^IPK, BiP and CHOP gene expression were examined by Northern blot analysis. (D) Increased apoptosis in iXBP-1 and dn-XBP-1 expressing J558 cells. Cells were treated with the indicated amounts of Tm for 48 hrs and dead cells counted after Annexin V staining.
Total RNA was prepared by using Trizol reagent, electrophoresed on 1.2% agarose, 6% formaldehyde gels and then transferred onto Genescreen Plus membrane, (NEN, Boston, Mass.). […] Probes for ERdj4 and p58^IPK were generated from cDNA excised from EST clones (ATCC, Manassas, Va.) using appropriate restriction enzymes (ERdj4, IMAGE: 1920927; p58^IPK, IMAGE:2646147). […]
A general note: A western blot detects proteins with antibodies after separation by electrophoresis.

B1: XBP-1s: vector encoding only the spliced form of murine XBP-1, a protein of 371 aa (protein)
chain: MVVVAAAPSAATAAPKVLLLSGQPASGGRALPLMVPGPRAAGSEASGTPQARKRQRLTHLSPEEKALRRKLKNRVAAQTARDRKKARMSELEQQVVDLEEENHKLQLENQLLREKTHGLVVENQELRTRLGMDTLDPDEVPEVEAKGSGVRLVAGSAESAAGAGPVVTSPEHLPMDSDTVASSDSESDILLGILDKLDPVMFFKCPSPESASLEELPEVYPEGPSSLPASLSLSVGTSSAKLEAINELIRFDHVYTKPLVLEIPSETESQTNVVVKIEEAPLSSSEEDHPEFIVSVKKEPLEDDFIPELGISNLLSSSHCLRPPSCLLDAHSDCGYEGSPSPFSDMSSPLGTDHSWEDTFANELFPQLISV
As for B1, in the data set on UPR target genes, the ATF6α induction result is reported as “also induced by XBP-1s”; the BiP induction entry is “only marginally induced”; the CHOP induction entry is recorded as “not significantly induced”; the “ERdj4 and p58ipk expression” value is “sufficient to induce ERdj4 and p58^ipk expression”. Further, in the data set with UPR target genes, the “share of analyzed UPR target genes induced” value was around 23%.

B2: dn-XBP: dominant negative XBP-1 containing the N-terminal 188 aa, lacking transactivation domain, retaining leucine zipper (protein)
chain: MVVVAAAPSAATAAPKVLLLSGQPASGGRALPLMVPGPRAAGSEASGTPQARKRQRLTHLSPEEKALRRKLKNRVAAQTARDRKKARMSELEQQVVDLEEENHKLQLENQLLREKTHGLVVENQELRTRLGMDTLDPDEVPEVEAKGSGVRLVAGSAESAAGAGPVVTSPEHLPMDSDTVASSDSESD
As for B2, in the data set on XBP-1, the “induction of BiP and CHOP by Tm” value is “minimally affected”; the “induction of ERdj4 and p58IPK by Tm” value was “greatly reduced induction of XBP-1-dependent UPR target genes, ERdj4 and p58^IPK”.
